Measured values: paper PMC8140593, “Chemical synthesis of peptidoglycan mimetic–disaccharide-tetrapeptide conjugate and its hydrolysis by bacteriophage T5, RB43 and RB49 L-alanyl-D-glutamate peptidases” (PeerJ, 2021)

Assay: Solubility in water
Type: physicochemical

CC(=O)N[C@H]1[C@H](O[C@H]2[C@H](O[C@H](C)C(=O)N[C@@H](C)C(=O)N[C@H](CCC(=O)N[C@@H](C)C(=O)N[C@H](C)C(=O)O)C(=O)O)[C@@H](NC(C)=O)C(O)O[C@@H]2CO)O[C@H](CO)[C@@H](O)[C@@H]1O (stereo partly drawn) [GMTP, N-acetylglucosaminyl-β(1-4)-N-acetylmuramoyl-l-alanyl-γ-d-glutamyl-l-alanyl-d-alanine]
solubility in water: water soluble
